Experimental data taken from publication PMC4583379.

Key:
[1] = anti-PilA western, supernatants of nisin-induced secreted PilA; conditions: glycan lost; control: wild-type PilAΔCWA
[2] = anti-PilA western, cell-wall extracts, exponential phase; conditions: glycan lost; control: wild type NEM316
[3] = anti-PilA western, membrane extracts, exponential phase; conditions: glycan lost; control: wild type NEM316
[4] = flow cytometry with anti-PilA antiserum; conditions: glycan lost; control: wild type NEM316
[5] = anti-PilA western, cell-wall extracts, stationary phase; conditions: glycan lost; control: wild type NEM316

B1: PilA (Gbs1478), PI-2a pilus tip adhesin: N427Q (protein)
parent chain: MRKYQKFSKILTLSLFCLSQIPLNTNVLGESTVPENGAKGKLVVKKTDDQNKPLSKATFVLKTTAHPESKIEKVTAELTGEATFDNLIPGDYTLSEETAPEGYKKTNQTWQVKVESNGKTTIQNSGDKNSTIGQNHEELDKQYPPTGIYEDTKESYKLEHVKGSVPNGKSEAKAVNPYSSEGEHIREIPEGTLSKRISEVGDLAHNKYKIELTVSGKTIVKPVDKQKPLDVVFVLDNSNSMNNDGPNFQRHNKAKKAAEALGTAVKDILGANSDNRVALVTYGSDIFDGRSVDVVKGFKEDDKYYGLQTKFTIQTENYSHKQLTNNAEEIIKRIPTEAPRAKWGSTTNGLTPEQQKQYYLSKVGETFTMKAFMEADDILSQVDRNSQKIIVHITDGVPTRSYAINNFKLGASYESQFEQMKKNGYLNKSNFLLTDKPEDIKGNGESYFLFPLDSYQTQIISGNLQKLHYLDLNLNYPKGTIYRNGPVREHGTPTKLYINSLKQKNYDIFNFGIDISAFRQVYNEDYKKNQDGTFQKLKEEAFELSDGEITELMKSFSSKPEYYTPIVTSSDASNNEILSKIQQQFEKVLTKENSIVNGTIEDPMGDKINLQLGNGQTLQPSDYTLQGNDGSIMKDSIATGGPNNDGGILKGVKLEYIKNKLYVRGLNLGEGQKVTLTYDVKLDDSFISNKFYDTNGRTTLNPKSEDPNTLRDFPIPKIRDVREYPTITIKNEKKLGEIEFTKVDKDNNKLLLKGATFELQEFNEDYKLYLPIKNNNSKVVTGENGKISYKDLKDGKYQLIEAVSPKDYQKITNKPILTFEVVKGSIQNIIAVNKQISEYHEEGDKHLITNTHIPPKGIIPMTGGKGILSFILIGGSMMSIAGGIYIWKRYKKSSDISREKD
no change: stability_or_folding [1] | expression_or_secretion [2] | expression_or_secretion [3] | expression_or_secretion [4] | stability_or_folding [5]

B2: PilA (Gbs1478), PI-2a pilus tip adhesin: N427Q-N597Q (protein)
parent chain: B1 parent chain
no change: expression_or_secretion [2] | expression_or_secretion [3] | expression_or_secretion [4]

B3: PilA (Gbs1478), PI-2a pilus tip adhesin: N597Q (protein)
parent chain: B1 parent chain
no change: stability_or_folding [1] | expression_or_secretion [2] | expression_or_secretion [3] | expression_or_secretion [4] | stability_or_folding [5]
